Consider one molecule from publication PMC4456239.

Read-outs that look alike come from different tables or passages of the source. *: point of attachment. X2 = 4‑((4-methylpiperazin-1-yl)methyl)benzoic acid, CN1CCN(Cc2ccc(C(=O)*)cc2)CC1

What all share (assay): other fluorescence titration
The target in assay [1] is recombinant His-tagged human cyclin A2 (sequence 174-432) (human) (UniProt P20248).
Assay [2] shares this target. The source holds these as a separate data set.
The target is the same in assay [3]. The source holds these as a separate data set.
For assay [4] the target is unchanged. The source holds these as a separate data set.
The target is the same in assay [5]. This is another data set of the same source.
Assay [6] shares this target. This is another data set of the same source.
The target is the same in assay [7]. The source holds these as a separate data set.

Chain of UniProt P20248 (P20248 174-432): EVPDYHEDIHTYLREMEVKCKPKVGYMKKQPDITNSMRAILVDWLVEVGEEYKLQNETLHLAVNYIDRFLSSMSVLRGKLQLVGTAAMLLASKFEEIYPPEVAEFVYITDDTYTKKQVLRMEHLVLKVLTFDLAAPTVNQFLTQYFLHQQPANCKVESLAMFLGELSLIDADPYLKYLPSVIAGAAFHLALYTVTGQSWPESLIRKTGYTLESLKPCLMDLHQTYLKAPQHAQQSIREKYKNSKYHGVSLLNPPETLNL

The Kd is the free concentration of one partner at which half of the binding sites on the other are occupied at equilibrium, for simple one-to-one binding. Turning to X2-RLIF-NH2 [SCCP5921: 4-((4-methylpiperazin-1-yl)methyl)benzoic acid ligated to the p21 C-terminus, RLIF], the Kd was found to be 4.77 µM in assay [1]; 5.44 µM in assay [2]; 6.59 µM in assay [3]; 6.77 µM in assay [4]; 5.28 µM in assay [5]; 3.55 µM in assay [6]. In addition, the Kd in assay [7] was determined as 3.21 µM.
